Assay results: the supplement of paper PMC10567573

B1: COX4I1 (parent)
chain: VAHVKHLSASQKALKEKEKASWSS
B2: FEM1A (parent)
chain: NIVEYLIQEQPGQEQVAGGEAQPG

Variants of: B1
Test: protein stability index of a GFP-peptide fusion (GPS, HEK-293T) (PSI 1-6); higher = more stable
Settings: c terminus: a fixed tail appended
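Also: lentivirally expressed fusions sorted by FACS into six bins by GFP to DsRed ratio, PSI derived from sequencing read proportions per bin multiplied by bin number.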

Variant | protein stability index
E18C | 3.38
E18Q | 4.05
E18H | 3.64
E18R | 2.77
E18F | 2.51
E18Y | 2.67
E18I | 3.15
E18L | 2.69
E18N | 2.98
E18A | 2.92
E18D | 3.15
E18P | 2.52
E18K | 2.92
E18G | 3.13
E18S | 3.02
E18W | 2.69
E18M | 2.13
E18V | 2.59
E18T | 2.87
K19I | 3.21
K19F | 2.64
K19S | 3.52
K19T | 3.17
K19R | 3.71

Variant | protein stability index
K19A | 3.86
K19H | 2.89
K19W | 3.46
K19M | 2.7
K19Q | 3.02
K19G | 3.52
K19C | 2.79
K19E | 4.5
K19P | 3.63
K19V | 3.03
K19Y | 2.28
K19L | 2.48
K19N | 3.4
K19D | 3.85
S21H | 3.46
S21P | 3.73
S21I | 3.68
S21C | 3.74
S21T | 3.32
S21Q | 4.07
S21F | 3.72
S21D | 4.18
S21V | 3.96
S21E | 4.42

Variant | protein stability index
S21L | 3.16
S21N | 3.75
S21G | 3.6
S21K | 3.47
S21R | 3.49
S21M | 3.39
S21Y | 3.32
S21A | 3.98
S21W | 3.24
K17Y | 3.06
K17E | 3.9
K17N | 3.81
K17R | 3.49
K17V | 2.95
K17A | 3.62
K17L | 2.71
K17M | 3.01
K17S | 3.23
K17H | 3.26
K17G | 3.86
K17Q | 3.53
K17D | 3.92
K17P | 3.32
K17W | 2.35

Variant | protein stability index
K17F | 3.31
K17C | 2.83
K17T | 3.21
K17I | 2.83
A20Y | 2.29
A20T | 3.25
A20C | 3.28
A20G | 3.25
A20R | 3.65
A20I | 2.76
A20K | 3.48
A20D | 3.27
A20L | 2.86
A20E | 1.71
A20P | 3.36
A20H | 3.23
A20Q | 2.57
A20V | 3.21
A20N | 3.05
A20M | 2.39
A20F | 3.13
A20S | 3.16
A20W | 2
K15W | 2.77

Variant | protein stability index
K15M | 3.94
K15D | 3.96
K15Y | 3
K15F | 3.21
K15E | 4.08
K15N | 3.77
K15H | 3.85
K15I | 3.82
K15S | 4.04
K15V | 3.2
K15L | 3.29
K15R | 3.33
K15P | 2.99
K15T | 3.48
K15G | 3.18
K15Q | 3.5
S24N | 3.76
S24L | 3.41
S24A | 3.41
S24K | 4.25
S24W | 2.95
S24Q | 3.94
S24F | 3.33
S24C | 3.31

Variant | protein stability index
S24V | 3.15
S24H | 3.45
S24E | 2.81
S24I | 3.56
S24R | 3.38
S24T | 3.57
S24M | 3.17
S24D | 2.98
S24Y | 3.13
S24G | 3.62
S24P | 4.36
S23K | 3.74
S23P | 4.06
S23N | 4
S23R | 3.22
S23G | 4.07
S23Y | 3.41
S23M | 3.77
S23I | 2.91
S23F | 3.65
S23T | 2.91
S23V | 2.61
S23A | 1.82
S23E | 3.26

Variant | protein stability index
S23L | 3.1
S23D | 4.4
S23C | 2.22
S23W | 2.81
S23H | 3.68
S23Q | 2.81
W22A | 5.14
W22H | 4.48
W22T | 4.96
W22P | 5.12
W22M | 4.88
W22V | 4.98
W22N | 5.21
W22Q | 4.79
W22C | 4.97
W22R | 4.58
W22S | 5.08
W22F | 4.6
W22I | 4.38
W22E | 5.33
W22Y | 4.29
W22D | 4.85
W22L | 4.74
W22K | 4.78

Variant | protein stability index
W22G | 5.03
E16F | 2.21
E16Q | 2.72
E16L | 2.36
E16S | 2.64
E16K | 3.17
E16I | 2.54
E16N | 3.05
E16V | 2.03
E16G | 2.38
E16H | 3.56
E16W | 2.31
E16P | 2.75
E16M | 2.46
E16C | 2
E16R | 2.8
E16D | 3.48
E16A | 3.67
E16Y | 2.56
E16T | 2.93

Variants of: B2
Test: as above
Settings: c terminus: a fixed tail appended

Variant | protein stability index
I7F | 4.14
I7W | 3.95
I7S | 4.75
I7R | 4.92
I7V | 4.43
I7K | 5.17
I7T | 4.65
I7Y | 4.33
I7N | 5.3
I7Q | 5.3
I7C | 4.78
I7D | 5.39
I7E | 5.3
I7G | 4.55
I7H | 4.74
I7A | 5.14
I7M | 4.25
I7L | 3.69
I7P | 5.71
N1S | 3.7
N1I | 3.26
N1A | 2.91
N1E | 3.85
N1D | 3.66
N1M | 2.16

Variant | protein stability index
N1T | 2.92
N1P | 5.17
N1G | 4.34
N1L | 1.85
N1K | 3.36
N1H | 3.76
N1Q | 3.89
N1R | 3.19
N1C | 2.79
N1Y | 2.52
N1F | 2.54
N1W | 2.71
N1V | 2.76
Q8M | 3.66
Q8I | 3.18
Q8L | 4.39
Q8N | 4.42
Q8E | 4.7
Q8C | 3.36
Q8K | 4.06
Q8G | 4.26
Q8F | 2.94
Q8P | 4.71
Q8H | 3.93
Q8A | 4.46

Variant | protein stability index
Q8D | 4.89
E4A | 3.48
E4L | 1.92
E4G | 4.16
E4D | 4.79
E4T | 4.6
E4Y | 2.31
E4V | 1.82
E4F | 2.4
E4P | 4.76
E4Q | 3.95
E4M | 2
E4R | 3.48
E4N | 4.22
E4H | 3.56
E4I | 1.86
E4S | 3.64
E4K | 4.11
E4W | 2.52
E4C | 3.11
L6A | 5.36
L6N | 5.71
L6Q | 5.35
L6E | 5.82
L6K | 5.42

Variant | protein stability index
L6C | 5.11
L6H | 5.61
L6D | 5.26
L6R | 5.16
L6Y | 5.11
L6W | 4.44
L6P | 5.7
L6T | 5.59
L6V | 5.11
L6F | 4.71
L6I | 4.63
L6S | 5.45
L6G | 5.51
L6M | 4.5
Y5A | 5.18
Y5M | 3.95
Y5H | 4.93
Y5C | 4.74
Y5L | 4.03
Y5S | 4.83
Y5F | 3.56
Y5K | 5.31
Y5N | 4.83
Y5R | 4.54
Y5T | 5.44

Variant | protein stability index
Y5D | 5.67
Y5I | 3.98
Y5E | 5.66
Y5W | 2.18
Y5V | 4.49
Y5G | 5.7
Y5Q | 5.08
Y5P | 5.82
V3I | 3.91
V3T | 4.81
V3L | 3.07
V3K | 5.05
V3R | 5.21
V3F | 4.21
V3C | 5.04
V3M | 4.2
V3Q | 4.57
V3S | 5.49
V3N | 5.01
V3P | 5.74
V3D | 5.67
V3A | 5.13
V3Y | 4.33
V3H | 5.06
V3W | 3.67

Variant | protein stability index
V3E | 5.36
V3G | 5.37
I2D | 5.12
I2W | 2.59
I2A | 5.21
I2M | 4.15
I2T | 5.57
I2G | 5.39
I2Q | 5.6
I2C | 5.17
I2F | 4.24
I2Y | 4.59
I2K | 5.27
I2P | 5.54
I2V | 5.13
I2E | 5.63
I2R | 5.59
I2S | 5.54
I2N | 5.41
I2H | 5.49
I2L | 4.29
